Results on one substance are retold here after article PMC7307210.

For this experiment, the target named is SAR1A (human) (UniProt Q9NR31). The experiment in a line: liposome flotation assay; SAR1 and SEC31A-af incubated with 100-nm synthetic liposomes and GMP-PNP, 30 min at 37 °C, floated through a sucrose gradient in HKM buffer (pH 6.8); SDS-PAGE and SYPRO-Ruby staining; SEC31-af signal normalized to SAR1.

Substance “GTPase-activating fragment of SEC31A (from UniProt O94979 1-1220) (domain or fragment)” yielded a fold recruitment relative to SAR1B of 2 fold.
